Source: patent publication US20210395716

Biological target: β-amyloid peptide (1-42), P05067
Sequence (P05067 whole entry, looked up, tested part not stated): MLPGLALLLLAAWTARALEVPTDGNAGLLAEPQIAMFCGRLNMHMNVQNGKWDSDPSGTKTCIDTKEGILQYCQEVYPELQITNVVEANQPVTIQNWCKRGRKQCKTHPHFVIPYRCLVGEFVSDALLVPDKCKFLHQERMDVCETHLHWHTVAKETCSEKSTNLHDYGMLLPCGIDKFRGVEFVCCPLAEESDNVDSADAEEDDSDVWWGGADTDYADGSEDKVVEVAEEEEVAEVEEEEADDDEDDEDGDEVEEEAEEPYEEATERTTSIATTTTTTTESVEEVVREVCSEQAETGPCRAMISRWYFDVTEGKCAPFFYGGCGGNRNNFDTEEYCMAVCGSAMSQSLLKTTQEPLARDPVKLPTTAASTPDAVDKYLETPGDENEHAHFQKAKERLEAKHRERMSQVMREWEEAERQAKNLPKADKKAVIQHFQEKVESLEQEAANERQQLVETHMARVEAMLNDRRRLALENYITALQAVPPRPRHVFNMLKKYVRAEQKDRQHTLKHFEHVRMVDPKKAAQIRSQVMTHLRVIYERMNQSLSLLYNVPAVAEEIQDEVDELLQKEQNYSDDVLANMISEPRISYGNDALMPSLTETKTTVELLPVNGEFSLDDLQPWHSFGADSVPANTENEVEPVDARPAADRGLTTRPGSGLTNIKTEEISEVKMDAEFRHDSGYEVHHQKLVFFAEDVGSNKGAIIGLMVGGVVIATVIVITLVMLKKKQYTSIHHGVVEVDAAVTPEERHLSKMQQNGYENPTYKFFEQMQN

B1: Fab-neprilysin (humanized 3E10 Fab fused through a Gly-Ser linker to the human neprilysin ectodomain) (protein)
chain 1: EVQLQESGGGVVQPGGSLRLSCAASGFTFSNYGMHWIRQAPGKGLEWVSYISSGSSTIYYADSVKGRFTISRDNSKNTLYLQMNSLRSEDTAVYYCARRGLLLDYWGQGTLVTVSSASTKGPSVFPLAPSSKSTSGGTAALGCLVKDYFPEPVTVSWNSGALTSGVHTFPAVLQSSGLYSLSSVVTVPSSSLGTQTYICNVNHKPSNTKVDKKVEPKSCDKTHTGGSGGGSGGGSGGYDDGICKSSDCIKSAARLIQNMDATTEPCTDFFKYACGGWLKRNVIPETSSRYGNFDILRDELEVVLKDVLQEPKTEDIVAVQKAKALYRSCINESAIDSRGGEPLLKLLPDIYGWPVATENWEQKYGASWTAEKAIAQLNSKYGKKVLINLFVGTDDKNSVNHVIHIDQPRLGLPSRDYYECTGIYKEACTAYVDFMISVARLIRQEERLPIDENQLALEMNKVMELEKEIANATAKPEDRNDPMLLYNKMTLAQIQNNFSLEINGKPFSWLNFTNEIMSTVNISITNEEDVVVYAPEYLTKLKPILTKYSARDLQNLMSWRFIMDLVSSLSRTYKESRNAFRKALYGTTSETATWRRCANYVNGNMENAVGRLYVEAAFAGESKHVVEDLIAQIREVFIQTLDDLTWMDAETKKRAEEKALAIKERIGYPDDIVSNDNKLNNEYLELNYKEDEYFENIIQNLKFSQSKQLKKLREKVDKDEWISGAAVVNAFYSSGRNQIVFPAGILQPPFFSAQQSNSLNYGGIGMVIGHEITHGFDDNGRNFNKDGDLVDWWTQQSASNFKEQSQCMVYQYGNFSWDLAGGQHLNGINTLGENIADNGGLGQAYRAYQNYIKKNGEEKLLPGLDLNHKQLFFLNFAQVWCGTYRPEYAVNSIKTDVHSPGNFRIIGTLQNSAEFSEAFHCRKNSYMNPEKKCRVW
chain 2: DIQMTQSPSSLSASVGDRVTISCRASKSVSTSSYSYMHWYQQKPEKAPKLLIKYASYLQSGVPSRFSGSGSGTDFTLTISSLQPEDVATYYCQHSREFPWTFGAGTKLELKRTVAAPSVFIFPPSDEQLKSGTASVVCLLNNFYPREAKVQWKVDNALQSGNSQESVTEQDSKDSTYSLSSTLTLSKADYEKHKVYACEVTHQGLSSPVTKSFNRGEC
**Q.** For B1, which Abeta HPLC, per hr. (sample FabNEP 2.5) is on record?
**A.** 0.5 per hr.

**Q.** And the Abeta HPLC, per hr. (sample FabNEP 3.6, pH 3.6 elution pool)?
**A.** 0.61 per hr.

**Q.** And the Abeta HPLC, per hr. (sample FabNEP 4.0, pH 4.0 elution pool)?
**A.** 0.66 per hr.

**Q.** And the Abeta HPLC, rate (sample FabNEP 2.5) (million sq unt/min)?
**A.** 0.0104

**Q.** And the Abeta HPLC, rate (sample FabNEP 3.6, pH 3.6 elution pool) (million sq unt/min)?
**A.** 0.0137

**Q.** And the Abeta HPLC, rate (sample FabNEP 4.0, pH 4.0 elution pool) (million sq unt/min)?
**A.** 0.0175

**Q.** And the Abeta HPLC, units/µL (sample FabNEP 2.5)?
**A.** 0.001 units/µL

**Q.** What about the Abeta HPLC, units/µL (sample FabNEP 3.6, pH 3.6 elution pool) of the same protein?
**A.** 0.0547 units/µL

**Q.** And the Abeta HPLC, units/µL (sample FabNEP 4.0, pH 4.0 elution pool)?
**A.** 0.035 units/µL

**Q.** What about the Abeta HPLC, units/µg (sample FabNEP 2.5) of the same protein?
**A.** 0.008 units/µg

**Q.** What about the Abeta HPLC, units/µg (sample FabNEP 3.6, pH 3.6 elution pool) of the same protein?
**A.** 0.01 units/µg

**Q.** What about the Abeta HPLC, units/µg (sample FabNEP 4.0, pH 4.0 elution pool) of the same protein?
**A.** 0.011 units/µg

**Q.** What about the “degradation of β-amyloid (1-42)” value of the same protein?
**A.** The Fab portion does not inhibit degradation of β-amyloid (1-42).

**Q.** And the “degradation of β-amyloid peptide (1-42), HPLC” value?
**A.** Fab-NEP degrades β-amyloid peptide (1-42). The Fab conjugate does not appear to inhibit neprilysin activity, as compared to yeast NEP (yNEP).
